Measurements from article doi:10.64898/2025.12.19.695423.

Target: Huntingtin Exon 1 with 44 glutamines (HttEx1Q44) amyloid fibrils
Assay: MST

- K app with FP20: 170 nM
- Kd: 460 nM
Substance: E3 ubiquitin ligase CHIP (from UniProt Q9UNE7 1-303) (enzyme)
